Measured values taken from the supplement of paper PMC10065799, “High-throughput profiling of sequence recognition by tyrosine kinases and SH2 domains using bacterial peptide display” (eLife, 2023).

How the values were obtained:
[1] = molecular target: Grb2 SH2 (UniProt P62993); assay: SH2 binding enrichment of the phosphorylated peptide, bacterial display (enrichment ratio); higher = better substrate or ligand; peptides without Tyr show the background
[2] = molecular target: SHP2-C SH2; assay: as above
[3] = molecular target: c-Src SH2; assay: as above
[4] = molecular target: FGFR1 (UniProt P11362); assay: phosphorylation enrichment, bacterial display (enrichment ratio); higher = better substrate or ligand; peptides without Tyr show the background
[5] = molecular target: Fyn (UniProt P06241); assay: as above
[6] = molecular target: MERTK (UniProt Q12866); assay: as above
[7] = molecular target: EPHB2 (UniProt P29323); assay: as above
[8] = molecular target: FGFR3 (UniProt P22607); assay: as above
[9] = molecular target: EPHB1 (UniProt P54762); assay: as above
[10] = molecular target: Hck (UniProt P08631); assay: as above
[11] = tested on: Fer (mouse); assay: as above
[12] = tested on: AncSZ; assay: as above
[13] = tested on: c-Abl (mouse); assay: as above
[14] = molecular target: Jak2 (UniProt O60674); assay: as above
[15] = tested on: c-Src; assay: as above
[16] = molecular target: Fes (UniProt P07332); assay: as above
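For SH2 binding enrichment of the phosphorylated peptide, bacterial display in this document: peptide library displayed on the E. coli surface as eCPX fusions, selected cells deep-sequenced, score is each peptide's frequency after selection divided by its frequency in the input.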
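For phosphorylation enrichment, bacterial display in this document: 11-residue human phosphosite peptides and single-mutation variants displayed on the E. coli surface, counted by deep sequencing, each peptide's frequency after selection divided by its frequency in the unselected input library; frequency after pTyr selection over input frequency; kinase dosed for 20-30% of maximal phosphorylation in three min.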

Hck, sequence (P08631 whole entry, looked up): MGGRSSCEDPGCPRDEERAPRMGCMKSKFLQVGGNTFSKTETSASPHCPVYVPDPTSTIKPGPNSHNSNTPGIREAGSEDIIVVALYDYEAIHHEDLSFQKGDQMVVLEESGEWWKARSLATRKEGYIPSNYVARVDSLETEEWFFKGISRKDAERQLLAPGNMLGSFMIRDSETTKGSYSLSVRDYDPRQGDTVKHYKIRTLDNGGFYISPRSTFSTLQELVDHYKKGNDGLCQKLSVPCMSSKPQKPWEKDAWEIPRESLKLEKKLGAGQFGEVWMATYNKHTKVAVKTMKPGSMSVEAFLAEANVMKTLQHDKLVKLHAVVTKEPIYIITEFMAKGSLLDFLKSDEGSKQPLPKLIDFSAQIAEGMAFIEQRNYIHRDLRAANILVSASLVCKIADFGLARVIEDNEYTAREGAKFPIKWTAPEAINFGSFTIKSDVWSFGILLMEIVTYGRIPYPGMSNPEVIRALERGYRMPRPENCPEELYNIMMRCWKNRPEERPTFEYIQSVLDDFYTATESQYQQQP
MERTK, sequence (Q12866 whole entry, looked up): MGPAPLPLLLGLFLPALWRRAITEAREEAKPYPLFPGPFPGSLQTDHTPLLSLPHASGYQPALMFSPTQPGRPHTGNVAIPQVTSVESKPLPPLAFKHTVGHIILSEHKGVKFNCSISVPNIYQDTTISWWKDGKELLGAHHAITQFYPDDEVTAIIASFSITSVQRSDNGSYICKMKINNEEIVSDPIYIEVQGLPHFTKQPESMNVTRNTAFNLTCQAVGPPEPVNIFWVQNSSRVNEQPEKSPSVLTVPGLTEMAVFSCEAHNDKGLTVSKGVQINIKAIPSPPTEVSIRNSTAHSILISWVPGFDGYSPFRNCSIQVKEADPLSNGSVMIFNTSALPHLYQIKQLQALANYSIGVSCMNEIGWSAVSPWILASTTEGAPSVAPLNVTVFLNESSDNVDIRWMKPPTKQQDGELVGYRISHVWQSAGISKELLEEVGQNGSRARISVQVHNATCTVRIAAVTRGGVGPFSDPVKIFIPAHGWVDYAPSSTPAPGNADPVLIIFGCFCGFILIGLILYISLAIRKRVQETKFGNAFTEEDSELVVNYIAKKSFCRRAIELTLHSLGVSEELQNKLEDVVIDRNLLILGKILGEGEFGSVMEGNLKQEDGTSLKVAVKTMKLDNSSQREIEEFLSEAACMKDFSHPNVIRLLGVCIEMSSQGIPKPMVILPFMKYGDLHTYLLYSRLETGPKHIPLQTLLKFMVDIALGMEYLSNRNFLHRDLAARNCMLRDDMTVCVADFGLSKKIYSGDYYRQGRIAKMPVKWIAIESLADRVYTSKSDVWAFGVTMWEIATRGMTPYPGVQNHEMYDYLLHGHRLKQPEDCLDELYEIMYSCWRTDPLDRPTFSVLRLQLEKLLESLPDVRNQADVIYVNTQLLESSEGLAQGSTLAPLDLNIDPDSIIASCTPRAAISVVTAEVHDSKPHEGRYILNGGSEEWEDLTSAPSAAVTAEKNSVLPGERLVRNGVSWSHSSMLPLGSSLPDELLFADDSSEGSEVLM
FGFR3, sequence (P22607 whole entry, looked up): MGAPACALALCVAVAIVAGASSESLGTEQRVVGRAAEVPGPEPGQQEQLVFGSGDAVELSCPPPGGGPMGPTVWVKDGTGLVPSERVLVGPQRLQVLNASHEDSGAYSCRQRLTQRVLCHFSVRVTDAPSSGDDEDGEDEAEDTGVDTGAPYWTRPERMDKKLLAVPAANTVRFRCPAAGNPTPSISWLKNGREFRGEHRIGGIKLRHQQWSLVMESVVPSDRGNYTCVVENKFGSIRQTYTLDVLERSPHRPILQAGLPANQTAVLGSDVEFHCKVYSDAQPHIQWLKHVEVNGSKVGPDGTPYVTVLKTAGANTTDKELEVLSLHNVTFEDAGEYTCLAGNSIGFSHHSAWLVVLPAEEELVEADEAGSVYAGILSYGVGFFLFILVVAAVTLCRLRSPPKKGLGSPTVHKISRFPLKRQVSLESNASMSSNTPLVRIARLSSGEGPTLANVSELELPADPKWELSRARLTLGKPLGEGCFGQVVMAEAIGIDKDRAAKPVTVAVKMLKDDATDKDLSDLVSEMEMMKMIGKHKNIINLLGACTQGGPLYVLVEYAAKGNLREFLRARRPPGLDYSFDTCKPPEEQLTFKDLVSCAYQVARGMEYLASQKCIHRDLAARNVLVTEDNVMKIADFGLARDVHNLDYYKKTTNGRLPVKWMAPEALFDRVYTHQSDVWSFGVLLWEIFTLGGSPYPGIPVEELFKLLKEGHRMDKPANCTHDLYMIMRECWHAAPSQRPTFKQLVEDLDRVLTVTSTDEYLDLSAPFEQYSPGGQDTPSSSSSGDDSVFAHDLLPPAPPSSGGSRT
Fes, sequence (P07332 whole entry, looked up, the tested form may be a part): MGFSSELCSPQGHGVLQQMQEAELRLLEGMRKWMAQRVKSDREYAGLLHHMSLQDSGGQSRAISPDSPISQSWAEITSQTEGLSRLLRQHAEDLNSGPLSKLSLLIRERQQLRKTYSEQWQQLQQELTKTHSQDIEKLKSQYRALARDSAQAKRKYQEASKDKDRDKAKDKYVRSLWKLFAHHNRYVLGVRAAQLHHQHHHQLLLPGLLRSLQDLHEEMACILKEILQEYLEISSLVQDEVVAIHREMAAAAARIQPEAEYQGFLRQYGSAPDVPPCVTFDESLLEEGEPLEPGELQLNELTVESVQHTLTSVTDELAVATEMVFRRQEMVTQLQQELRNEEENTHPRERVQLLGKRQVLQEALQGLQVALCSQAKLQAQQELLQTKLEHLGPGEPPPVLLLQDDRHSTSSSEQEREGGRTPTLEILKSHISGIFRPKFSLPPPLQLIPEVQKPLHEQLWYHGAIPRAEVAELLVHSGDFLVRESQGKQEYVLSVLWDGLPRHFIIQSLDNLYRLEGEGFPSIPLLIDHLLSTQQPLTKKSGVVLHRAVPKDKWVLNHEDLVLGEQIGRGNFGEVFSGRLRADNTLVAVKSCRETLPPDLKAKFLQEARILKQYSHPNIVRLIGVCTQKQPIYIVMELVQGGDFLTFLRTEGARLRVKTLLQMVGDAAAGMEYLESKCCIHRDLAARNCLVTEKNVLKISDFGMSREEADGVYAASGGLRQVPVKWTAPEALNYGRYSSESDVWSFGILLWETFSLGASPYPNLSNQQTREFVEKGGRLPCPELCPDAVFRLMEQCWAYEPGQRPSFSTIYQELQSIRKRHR
Jak2, sequence (O60674 whole entry, looked up): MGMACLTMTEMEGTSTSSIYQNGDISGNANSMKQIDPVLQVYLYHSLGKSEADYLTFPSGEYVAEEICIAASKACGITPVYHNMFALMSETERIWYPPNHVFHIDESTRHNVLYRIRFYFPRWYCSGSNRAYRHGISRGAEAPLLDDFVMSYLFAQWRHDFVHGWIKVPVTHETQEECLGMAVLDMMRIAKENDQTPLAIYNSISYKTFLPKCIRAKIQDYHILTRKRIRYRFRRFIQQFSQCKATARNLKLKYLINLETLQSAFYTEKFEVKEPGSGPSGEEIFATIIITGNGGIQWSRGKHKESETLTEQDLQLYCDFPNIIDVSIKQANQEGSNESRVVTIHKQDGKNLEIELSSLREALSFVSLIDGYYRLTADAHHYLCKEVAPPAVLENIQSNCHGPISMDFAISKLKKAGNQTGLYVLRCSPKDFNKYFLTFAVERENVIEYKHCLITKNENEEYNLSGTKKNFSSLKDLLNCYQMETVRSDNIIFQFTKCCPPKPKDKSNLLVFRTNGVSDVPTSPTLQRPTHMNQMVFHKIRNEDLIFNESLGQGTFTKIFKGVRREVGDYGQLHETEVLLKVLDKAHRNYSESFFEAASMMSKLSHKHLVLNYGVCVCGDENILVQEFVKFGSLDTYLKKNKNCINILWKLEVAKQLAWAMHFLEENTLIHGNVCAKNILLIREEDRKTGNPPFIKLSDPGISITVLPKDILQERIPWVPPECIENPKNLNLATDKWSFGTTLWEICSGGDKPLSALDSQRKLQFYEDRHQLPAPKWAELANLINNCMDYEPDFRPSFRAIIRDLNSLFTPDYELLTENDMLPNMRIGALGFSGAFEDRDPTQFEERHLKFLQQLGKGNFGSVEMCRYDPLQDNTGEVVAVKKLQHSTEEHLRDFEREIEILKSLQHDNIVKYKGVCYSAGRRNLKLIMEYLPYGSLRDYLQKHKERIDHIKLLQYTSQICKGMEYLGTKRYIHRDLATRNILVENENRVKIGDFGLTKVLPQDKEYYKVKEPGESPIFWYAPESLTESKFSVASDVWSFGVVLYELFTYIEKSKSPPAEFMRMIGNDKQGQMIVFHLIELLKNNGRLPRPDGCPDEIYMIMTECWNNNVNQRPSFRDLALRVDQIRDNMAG
Fyn, sequence (P06241 whole entry, looked up): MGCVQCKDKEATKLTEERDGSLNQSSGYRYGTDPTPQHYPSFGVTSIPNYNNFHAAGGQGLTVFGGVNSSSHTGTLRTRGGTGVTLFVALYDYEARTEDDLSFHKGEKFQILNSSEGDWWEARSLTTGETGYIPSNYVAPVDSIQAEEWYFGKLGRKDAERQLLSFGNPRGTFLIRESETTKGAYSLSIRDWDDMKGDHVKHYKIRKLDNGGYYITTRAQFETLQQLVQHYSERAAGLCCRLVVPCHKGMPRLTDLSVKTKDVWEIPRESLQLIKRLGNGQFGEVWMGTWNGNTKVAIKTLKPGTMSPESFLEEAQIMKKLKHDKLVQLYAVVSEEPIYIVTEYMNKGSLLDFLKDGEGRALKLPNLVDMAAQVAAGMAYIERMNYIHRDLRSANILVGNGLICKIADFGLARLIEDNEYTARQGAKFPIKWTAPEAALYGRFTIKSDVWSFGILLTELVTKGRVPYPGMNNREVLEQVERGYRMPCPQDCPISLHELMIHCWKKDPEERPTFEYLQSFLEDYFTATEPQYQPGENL

Row | Sequence | SH2 binding enrichment [1] | SH2 binding enrichment [2] | SH2 binding enrichment [3] | phosphorylation enrichment [4] | phosphorylation enrichment [5] | phosphorylation enrichment [6] | phosphorylation enrichment [7] | phosphorylation enrichment [8] | phosphorylation enrichment [9] | phosphorylation enrichment [10] | phosphorylation enrichment [11] | phosphorylation enrichment [12] | phosphorylation enrichment [13] | phosphorylation enrichment [14] | phosphorylation enrichment [15] | phosphorylation enrichment [16]
1 | VKPENDRRLDI [VHL_Y175_Y175D] | 1.12 | 0.718 | 0.584 | 0.37 | 0.43 | 0.531 | 0.438 | 0.539 | 0.44 | 0.43 | 0.43 | 0.675 | 0.535 | 0.692 | 0.356 | 0.789
2 | FLQTDYTSQVS [FRMPD1_Y846] | 0.791 | 0.873 | 0.579 | 0.442 | 0.404 | 0.386 | 0.44 | 0.538 | 0.37 | 0.417 | 0.451 | 1.03 | 0.565 | 0.732 | 0.428 | 0.805
3 | KKLHEYNTQFQ [PIK3R1_Y452] | 1 | 0.86 | 0.592 | 0.322 | 0.39 | 0.348 | 0.385 | 0.366 | 0.323 | 0.367 | 0.389 | 0.55 | 0.477 | 0.43 | 0.42 | 0.541
4 | DAANNYARGHF [TUBA3E_Y103_S101N_YF] | 0.665 | 0.823 | 0.531 | 0.422 | 0.425 | 0.544 | 0.626 | 0.403 | 0.382 | 0.426 | 0.431 | 0.698 | 1.06 | 0.391 | 0.468 | 0.652
5 | RPFVFYFSFLL [PTEN_Y177_R173P_YF] | 2.27 | 1.02 | 0.918 | 0.589 | 0.76 | 0.641 | 0.483 | 0.835 | 0.838 | 0.867 | 0.587 | 1.29 | 1.29 | 1.55 | 0.982 | 1.29
6 | HGTKVYIDPFT [EPHB4_Y590] | 1.21 | 1.62 | 0.788 | 0.711 | 0.601 | 1.03 | 0.66 | 0.688 | 0.788 | 0.628 | 0.426 | 0.602 | 0.725 | 0.815 | 0.49 | 0.705
7 | LSQQVYRVNLS [FAT4_Y480_F475L] | 0.764 | 0.67 | 0.422 | 0.428 | 0.616 | 0.792 | 0.622 | 0.631 | 0.532 | 0.521 | 0.572 | 0.821 | 0.637 | 0.647 | 0.836 | 0.751
8 | PFFTSYPPSPD [GDAP2_Y491_YF] | 0.739 | 0.568 | 0.471 | 0.557 | 0.498 | 0.629 | 0.447 | 0.644 | 0.438 | 0.356 | 0.507 | 0.907 | 0.901 | 1.14 | 0.588 | 1.15

Second part, led by results:

Row | SH2 binding enrichment [1] | SH2 binding enrichment [2] | SH2 binding enrichment [3] | Sequence | phosphorylation enrichment [4] | phosphorylation enrichment [5] | phosphorylation enrichment [6] | phosphorylation enrichment [7] | phosphorylation enrichment [8] | phosphorylation enrichment [9] | phosphorylation enrichment [10] | phosphorylation enrichment [11] | phosphorylation enrichment [12] | phosphorylation enrichment [13] | phosphorylation enrichment [14] | phosphorylation enrichment [15] | phosphorylation enrichment [16]
9 | 0.678 | 0.665 | 0.589 | YRIDHYLGKEM [G6PD_Y202] | 0.57 | 0.757 | 0.508 | 0.627 | 0.654 | 0.467 | 0.57 | 0.445 | 0.716 | 0.706 | 0.865 | 0.485 | 0.909
10 | 0.833 | 0.773 | 0.546 | HVIKFYGACSQ [RET_Y791_L790F] | 0.871 | 0.759 | 0.545 | 0.851 | 1.08 | 0.956 | 0.779 | 0.576 | 1.5 | 1.4 | 1.3 | 0.564 | 1.75
11 | 1.13 | 2.34 | 0.811 | SRDTRYLVLAV [AMH_Y195] | 0.543 | 0.492 | 0.487 | 0.559 | 0.683 | 0.636 | 0.476 | 0.552 | 0.93 | 0.739 | 0.909 | 0.514 | 1.1
12 | 0.816 | 0.416 | 0.354 | VICRRYLVMQR [IL3RA_Y328] | 0.786 | 0.595 | 0.531 | 0.69 | 0.74 | 0.456 | 0.487 | 0.46 | 1.24 | 0.618 | 0.894 | 0.342 | 1.05
13 | 1.05 | 0.719 | 0.728 | SVAVPYEPPEV [TP53_Y220_V217A] | 0.595 | 0.486 | 0.493 | 0.626 | 0.944 | 0.614 | 0.565 | 0.529 | 1.31 | 0.823 | 1.1 | 0.551 | 1.31
14 | 0.632 | 0.827 | 0.485 | SVETPYVSVTF [NDRG2_Y47_G48V] | 0.897 | 0.784 | 0.47 | 0.629 | 0.936 | 0.632 | 0.662 | 1.56 | 1.26 | 0.844 | 1.1 | 2.05 | 1.19
15 | 0.735 | 0.737 | 0.425 | SGFESYGSSSS [RPA2_Y9_Y14S] | 0.461 | 0.453 | 0.502 | 0.617 | 0.599 | 0.47 | 0.484 | 0.521 | 0.651 | 0.633 | 0.555 | 0.541 | 0.658
16 | 0.888 | 0.616 | 0.45 | EVESPYEVRDF [GIGYF2_Y1168_H1171R_YF] | 0.655 | 7.49 | 0.809 | 0.951 | 0.942 | 1.01 | 2.04 | 9.13 | 1.57 | 1.09 | 1.63 | 6.73 | 1.71
17 | 0.834 | 0.715 | 0.393 | VSFDEYRFRSF [CFTR_Y515_V520F_YF] | 0.514 | 0.569 | 0.45 | 0.568 | 0.739 | 0.612 | 0.484 | 0.502 | 0.903 | 0.982 | 1.11 | 0.561 | 1.12
